Test results published in patent US20120107330A1 (published 2012).

T1: human TNFR1 on MRC-5 cells (human, UniProt P19438 30-455)
T1 sequence (looked up): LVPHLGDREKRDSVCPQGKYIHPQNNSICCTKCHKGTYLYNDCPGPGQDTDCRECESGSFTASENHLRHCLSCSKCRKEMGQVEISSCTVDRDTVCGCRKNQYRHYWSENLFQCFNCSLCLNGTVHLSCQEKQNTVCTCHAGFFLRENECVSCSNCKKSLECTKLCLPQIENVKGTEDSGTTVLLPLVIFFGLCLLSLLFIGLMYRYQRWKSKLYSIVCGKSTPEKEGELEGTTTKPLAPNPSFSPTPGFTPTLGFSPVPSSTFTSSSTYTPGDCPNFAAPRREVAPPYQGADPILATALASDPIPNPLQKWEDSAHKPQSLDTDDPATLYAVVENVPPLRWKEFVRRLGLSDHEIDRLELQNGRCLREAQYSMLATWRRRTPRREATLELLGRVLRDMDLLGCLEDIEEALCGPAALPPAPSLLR

T2: mouse TNFR1 on L929 cells (mouse, UniProt P25118 30-454)
T2 sequence (looked up): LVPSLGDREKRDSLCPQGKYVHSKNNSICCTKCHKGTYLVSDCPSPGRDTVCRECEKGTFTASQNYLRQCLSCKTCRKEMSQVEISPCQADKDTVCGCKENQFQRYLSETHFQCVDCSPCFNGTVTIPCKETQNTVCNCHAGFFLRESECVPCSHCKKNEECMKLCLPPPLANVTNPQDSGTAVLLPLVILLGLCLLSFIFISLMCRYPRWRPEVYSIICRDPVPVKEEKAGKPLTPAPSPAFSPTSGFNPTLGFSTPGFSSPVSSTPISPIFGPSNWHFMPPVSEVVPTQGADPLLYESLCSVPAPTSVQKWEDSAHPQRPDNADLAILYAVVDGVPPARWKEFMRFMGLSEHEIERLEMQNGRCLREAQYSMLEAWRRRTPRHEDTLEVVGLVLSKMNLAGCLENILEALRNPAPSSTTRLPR

T3: Cynomologus monkey TNFR1 on CYNOM-K1 cells (Cynomolgus monkey, UniProt Q2PFV5 30-455)
T3 sequence: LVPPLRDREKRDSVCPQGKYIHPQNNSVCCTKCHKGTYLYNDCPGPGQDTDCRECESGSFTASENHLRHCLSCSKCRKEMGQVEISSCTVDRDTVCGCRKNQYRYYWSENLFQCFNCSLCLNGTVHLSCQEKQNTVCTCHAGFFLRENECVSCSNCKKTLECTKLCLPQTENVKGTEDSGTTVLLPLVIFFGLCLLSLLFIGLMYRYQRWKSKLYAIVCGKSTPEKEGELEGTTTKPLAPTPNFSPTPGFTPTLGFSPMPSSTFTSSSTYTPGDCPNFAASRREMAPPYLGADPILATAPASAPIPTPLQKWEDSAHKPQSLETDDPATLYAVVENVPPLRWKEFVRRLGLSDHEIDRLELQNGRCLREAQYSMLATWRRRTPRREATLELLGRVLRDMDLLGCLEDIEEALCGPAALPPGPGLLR

T4: human TNFR1 (recombinant, R&D Systems cat no. 636-R1/CF, biotinylated) (human, UniProt P19438 30-211, limits assumed, biotinylated with EZ-Link NHS-LC-LC-biotin)
T4 construct: it is not tied to the BIAcore reagent; also called p55; hTNFR1
T4 sequence (looked up): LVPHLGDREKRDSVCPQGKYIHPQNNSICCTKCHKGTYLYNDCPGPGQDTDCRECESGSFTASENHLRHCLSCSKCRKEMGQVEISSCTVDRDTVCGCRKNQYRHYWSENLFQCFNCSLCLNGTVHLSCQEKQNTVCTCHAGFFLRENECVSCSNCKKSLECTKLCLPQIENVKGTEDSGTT

T5: mouse TNFR1 (recombinant, R&D Systems cat no. 425-R1-050/CF, biotinylated) (mouse, UniProt P25118 22-212, biotinylated with EZ-Link NHS-LC-LC-biotin)
T5 construct: also called murine TNFR1; biotinylated mouse TNFR1
T5 sequence (looked up): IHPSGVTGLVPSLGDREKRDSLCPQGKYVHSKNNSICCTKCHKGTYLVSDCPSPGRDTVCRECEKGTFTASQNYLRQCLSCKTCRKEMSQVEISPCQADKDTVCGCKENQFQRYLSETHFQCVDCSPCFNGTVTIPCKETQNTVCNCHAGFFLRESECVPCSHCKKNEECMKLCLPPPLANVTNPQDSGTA


What was measured:
[1] = target: T6, human serum albumin (HSA, Sigma-Aldrich) (human, UniProt P02768 25-609); experiment: BIAcore, HSA on CM5 chip
T6 construct: also called human albumin
T6 sequence (P02768 25-609 limits assumed): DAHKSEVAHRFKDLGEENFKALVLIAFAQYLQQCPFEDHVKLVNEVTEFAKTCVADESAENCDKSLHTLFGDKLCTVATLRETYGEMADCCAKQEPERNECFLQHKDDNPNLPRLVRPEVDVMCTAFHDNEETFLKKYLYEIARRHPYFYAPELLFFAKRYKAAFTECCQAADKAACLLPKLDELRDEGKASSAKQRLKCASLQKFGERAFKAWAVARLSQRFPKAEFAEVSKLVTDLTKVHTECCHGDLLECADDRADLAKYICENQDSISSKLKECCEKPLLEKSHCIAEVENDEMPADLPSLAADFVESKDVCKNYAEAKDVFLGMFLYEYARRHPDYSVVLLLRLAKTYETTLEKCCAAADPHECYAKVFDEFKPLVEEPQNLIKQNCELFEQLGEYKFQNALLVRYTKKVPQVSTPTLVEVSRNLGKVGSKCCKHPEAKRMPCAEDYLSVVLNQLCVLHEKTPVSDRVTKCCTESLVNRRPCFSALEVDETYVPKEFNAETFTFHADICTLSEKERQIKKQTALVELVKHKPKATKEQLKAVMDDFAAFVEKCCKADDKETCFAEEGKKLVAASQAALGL
Experimental: (§1) FIG. 23. BIAcore analysis for binding of DOM0100-AlbudAb in-line fusions to human serum albumin (HSA). HSA (Sigma-Aldrich) was coated on a BIAcore CM5 chip using EDC/NHS chemistry according to manufacturer's instructions. Subsequently, the DMS constructs, each consisting N-terminally to C-terminally of an anti-TNFR1 dAb-Linker-AlbudAb and identified in Table 6, were injected at 1 μM over the HSA surface and binding was monitored. […] The corresponding BIAcore trace for each DMS clone is indicated with an arrow.

[2] = target: T7, mouse serum albumin (MSA, Sigma-Aldrich) (mouse, UniProt P07724 25-608); experiment: BIAcore, MSA on CM5 chip
T7 construct: also called mouse albumin
Experimental: as §1, with “22.” for “23.”, “mouse” for “human”, “(MSA). MSA” for “(HSA). HSA”, “MSA” for “HSA”
After expression and purification, all constructs were tested on the BIAcore for binding to both mouse and human serum albumin. The off-rates were determined and used to discriminate between the AlbudAbs for their suitability in prolonging the half-life of the fusion molecule. Whereas the linker had little influence on the affinity of the AlbudAb for albumin, a significant difference existed between the dAbs and their albumin affinity. The best AlbudAb for mouse binding was DOM7h-11-15 followed by DOM7m-16 and DOM7h-11-12 (FIG. 22).

[3] = target: T1, human TNFR1 on MRC-5 cells; experiment: cell-based or functional assay
[4] = target: T2, mouse TNFR1 on L929 cells; experiment: cell-based or functional assay
[5] = target: T3, Cynomologus monkey TNFR1 on CYNOM-K1 …; experiment: cell-based or functional assay
[6] = target: T4, human TNFR1 (recombinant, R&D Systems …); experiment: BIAcore, human TNFR1 on SA chip
Description: (§2) BIAcore was done to determine the association and dissociation rates of the different dAbs and in that way establish their binding affinity for both human and mouse TNFR1. Experiments were done using biotinylated TNFR1 (R&D Systems), of the respective species, coupled to streptavidin-coated BIAcore chips followed by injection of a concentration range of the dAbs.

[7] = target: T5, mouse TNFR1 (recombinant, R&D Systems …); experiment: BIAcore, mouse TNFR1 on SA chip
Description: as §2

| binding result [1] | koff [2] [s⁻¹] | koff [1] [s⁻¹] | Human MRC5 ND50 [3] [nM] | Mouse L929 ND50 [4] [nM] | Cynomologus CYNOM-K1 ND50 [5] [nM] | Kd [6] [nM] | koff [6] [s⁻¹] | kon [6] [M⁻¹ s⁻¹] | Kd [7] [nM] | koff [7] [s⁻¹] | kon [7] [M⁻¹ s⁻¹] | Binder |
| --- | --- | --- | --- | --- | --- | --- | --- | --- | --- | --- | --- | --- |
| no binding (tested: 1 µM) | 0.11 | – | – | – | – | – | – | – | – | – | – | DMS0191 (bispecific antibody, anti-TNFR1 dAb / AlbudAb in-line fusion) EVQLLESGGGLVQPGGSLRLSCAASGFTFVKYSMGWVRQAPGKGPEWVSQISNTGDRTYYADSVKGRFTISRDNSKNTLYLQMNSLRAEDTAVYYCAIYTGRWEPFDYWGQGTLVTVSSASTDIQMTQSPSSLSASVGDRVTITCRASQSIIKHLKWYQQKPGKAPKLLIYGASRLQSGVPSRFSGSGSGTDFTLTISSLQPEDFATYYCQQGTRWPQTFGQGTKVEIKRAAAEQKLISEEDLN |
| no binding (tested: 1 µM) | 0.09 | – | – | – | – | – | – | – | – | – | – | DMS0192 (bispecific antibody, anti-TNFR1 dAb / AlbudAb in-line fusion) EVQLLESGGGLVQPGGSLRLSCAASGFTFVKYSMGWVRQAPGKGPEWVSQISNTGDRTYYADSVKGRFTISRDNSKNTLYLQMNSLRAEDTAVYYCAIYTGRWEPFDYWGQGTLVTVSSASTSGPSDIQMTQSPSSLSASVGDRVTITCRASQSIIKHLKWYQQKPGKAPKLLIYGASRLQSGVPSRFSGSGSGTDFTLTISSLQPEDFATYYCQQGARWPQTFGQGTKVEIKRAAAEQKLISEEDLN |
| – | – | – | 1.1 | 28 | 1.8 | 0.27 | 3.7e-05 | 140000 | 4.4 | 0.0003 | 70000 | DOM1h-574-139 (other, VH dAb) VH: EVQLLESGGGLVQPGGSLRLSCAASGFTFLKYSMGWVRQAPGKGLEWVSQISDTADRTYYAHSVKGRFTISRDNSKNTLYLQMNSLRAEDTAVYYCAIYTGRWAPFEYWGQGTLVTVSS |
| – | – | – | 0.9 | 22 | – | 0.15 | 4.3e-05 | 300000 | 2.1 | 0.0003 | 140000 | DOM1h-574-156 (other, VH dAb) VH: EVQLLESGGGLVQPGGSLRLSCAASGFTFFKYSMGWVRQAPGKGLEWVSQISDTADRTYYAHSVKGRFTISRDNSKNTLYLQMNSLRAEDTAVYYCAIYTGRWVPFEYWGQGTLVTVSS |
| – | – | – | 1.4 | 23 | 1.2 | 0.15 | 3.8e-05 | 250000 | 2.4 | 0.0003 | 130000 | DOM1h-574-138 (other, VH dAb) VH: EVQLLESGGGLVQPGGSLRLSCAASGFTFFKYSMGWVRQAPGKGLEWVSQISDTADRTYYAHSVKGRFTISRDNSKNTLYLQMNSLRAEDTAVYYCAIYTGRWAPFEYWGQGTLVTVSS |
| – | – | – | 1.2 | 27 | – | 0.15 | 4.4e-05 | 290000 | 2.5 | 0.00034 | 140000 | DOM1h-574-162 (other, VH dAb) VH: EVQLLESGGGLVQPGGSLRLSCAASGFTFFKYSMGWVRQAPGKGLEWVSQISDTADRTYYSHSVKGRFTISRDNSKNTLYLQMNSLRAEDTAVYYCAIYTGRWVPFEYWGQGTLVTVSS |

The next lines start with the binder.

| Binder | binding result [1] | koff [2] [s⁻¹] | koff [1] [s⁻¹] | Human MRC5 ND50 [3] [nM] | Mouse L929 ND50 [4] [nM] | Cynomologus CYNOM-K1 ND50 [5] [nM] | Kd [6] [nM] | koff [6] [s⁻¹] | kon [6] [M⁻¹ s⁻¹] | Kd [7] [nM] | koff [7] [s⁻¹] | kon [7] [M⁻¹ s⁻¹] |
| --- | --- | --- | --- | --- | --- | --- | --- | --- | --- | --- | --- | --- |
| DMS0190 (bispecific antibody, anti-TNFR1 dAb / AlbudAb in-line fusion) EVQLLESGGGLVQPGGSLRLSCAASGFTFVKYSMGWVRQAPGKGPEWVSQISNTGDRTYYADSVKGRFTISRDNSKNTLYLQMNSLRAEDTAVYYCAIYTGRWEPFDYWGQGTLVTVSSASTSGPSDIQMTQSPSSLSASVGDRVTITCRASRPIGTTLSWYQQKPGKAPKLLILWNSRLQSGVPSRFSGSGSGTDFTLTISSLQPEDFATYYCAQAGTHPTTFGQGTKVEIKRAAAEQKLISEEDLN | – | 0.16 | 0.019 | – | – | – | – | – | – | – | – | – |
| DMS0189 (bispecific antibody, anti-TNFR1 dAb / AlbudAb in-line fusion) EVQLLESGGGLVQPGGSLRLSCAASGFTFVKYSMGWVRQAPGKGPEWVSQISNTGDRTYYADSVKGRFTISRDNSKNTLYLQMNSLRAEDTAVYYCAIYTGRWEPFDYWGQGTLVTVSSASTDIQMTQSPSSLSASVGDRVTITCRASRPIGTTLSWYQQKPGKAPKLLILWNSRLQSGVPSRFSGSGSGTDFTLTISSLQPEDFATYYCAQAGTHPTTFGQGTKVEIKRAAAEQKLISEEDLN | – | 0.13 | 0.017 | – | – | – | – | – | – | – | – | – |
| DOM1h-574-109 (other, VH dAb) VH: EVQLLESGGGLVQPGGSLRLSCAASGFTFVKYSMGWVRQAPGKGLEWVSQISDTADRTYYAHSVKGRFTISRDNSKNTLYLQMNSLRAEDTAVYYCAIYTGRWVPFEYWGQGTLVTVSS | – | – | – | 1.8 | 20 | 2.3 | 0.23 | 5.5e-05 | 240000 | 2.8 | 0.00033 | 120000 |
| DOM1h-574-135 (other, VH dAb) VH: EVQLLESGGGLVQPGGSLRLSCAASGFTFVKYSMGWVRQAPGKGLEWVSQISDTADRTYYTHSVKGRFTISRDNSKNTLYLQMNSLRAEDTAVYYCAIYTGRWVPFEYWGQGTLVTVSS | – | – | – | 1.8 | 47 | 1.5 | 0.21 | 5.2e-05 | 250000 | 3.8 | 0.00045 | 110000 |
| DOM1h-574-133 (other, VH dAb) VH: EVQLLESGGGLVQPGGSLRLSCAASGFTFVKYSMGWVRQAPGKGLEWVSQISDTADRTYYDHSVKGRFTISRDNSKNTLYLQMNSLRAEDTAVYYCAIYTGRWEPFVYWGQGTLVTVSS | – | – | – | 2.1 | 110 | 1.7 | 0.34 | 8.8e-05 | 260000 | 5.2 | 0.00075 | 140000 |
